Reference: patent publication US20180147257A1

Columns and labels:
Assay in all cases: cell-based or functional assay
HLA-E on YT-1 cells = HLA-E on YT-1 cells (UniProt P13747)
FLT1 on YT-1 cells = FLT1 on YT-1 cells (UniProt P17948)
LTβR on YT-1 cells = LTβR on YT-1 cells (UniProt P36941)
ROR2 on YT-1 cells = ROR2 on YT-1 cells (UniProt Q01974)
CD163 on YT-1 cells = CD163 on YT-1 cells (UniProt Q86VB7)
CD163 on YT-1 cells, sequence (Q86VB7 42-1156): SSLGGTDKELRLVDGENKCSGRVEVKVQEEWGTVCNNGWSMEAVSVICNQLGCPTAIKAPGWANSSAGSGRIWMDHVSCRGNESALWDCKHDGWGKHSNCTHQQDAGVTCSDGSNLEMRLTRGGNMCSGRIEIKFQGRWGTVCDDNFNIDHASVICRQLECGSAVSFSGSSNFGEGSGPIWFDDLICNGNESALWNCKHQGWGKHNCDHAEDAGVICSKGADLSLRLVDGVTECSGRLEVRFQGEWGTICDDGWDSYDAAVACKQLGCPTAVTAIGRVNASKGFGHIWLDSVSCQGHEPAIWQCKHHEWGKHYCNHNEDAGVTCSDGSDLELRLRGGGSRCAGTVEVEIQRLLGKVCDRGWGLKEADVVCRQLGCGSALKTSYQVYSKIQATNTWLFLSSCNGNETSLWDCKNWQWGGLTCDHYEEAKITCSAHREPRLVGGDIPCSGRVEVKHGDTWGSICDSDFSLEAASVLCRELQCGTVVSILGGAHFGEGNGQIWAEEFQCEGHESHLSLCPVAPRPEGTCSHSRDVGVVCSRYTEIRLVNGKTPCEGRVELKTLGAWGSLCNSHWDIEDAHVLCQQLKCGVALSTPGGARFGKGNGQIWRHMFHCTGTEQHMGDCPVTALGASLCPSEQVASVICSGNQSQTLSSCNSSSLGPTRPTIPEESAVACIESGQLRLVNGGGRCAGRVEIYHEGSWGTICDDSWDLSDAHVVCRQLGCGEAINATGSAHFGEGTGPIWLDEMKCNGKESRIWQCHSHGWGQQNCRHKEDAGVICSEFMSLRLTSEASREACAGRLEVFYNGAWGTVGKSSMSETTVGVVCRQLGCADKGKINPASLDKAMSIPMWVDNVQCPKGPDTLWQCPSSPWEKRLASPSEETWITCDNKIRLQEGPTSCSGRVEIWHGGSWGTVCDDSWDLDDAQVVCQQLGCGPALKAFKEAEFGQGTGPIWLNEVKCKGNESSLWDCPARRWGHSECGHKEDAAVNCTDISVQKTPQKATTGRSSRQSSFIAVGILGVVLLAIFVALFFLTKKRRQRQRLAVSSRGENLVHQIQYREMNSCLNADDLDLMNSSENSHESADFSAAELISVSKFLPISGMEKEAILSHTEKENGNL

HLA-E on YT-1 cells, sequence (P13747 22-358 limits assumed): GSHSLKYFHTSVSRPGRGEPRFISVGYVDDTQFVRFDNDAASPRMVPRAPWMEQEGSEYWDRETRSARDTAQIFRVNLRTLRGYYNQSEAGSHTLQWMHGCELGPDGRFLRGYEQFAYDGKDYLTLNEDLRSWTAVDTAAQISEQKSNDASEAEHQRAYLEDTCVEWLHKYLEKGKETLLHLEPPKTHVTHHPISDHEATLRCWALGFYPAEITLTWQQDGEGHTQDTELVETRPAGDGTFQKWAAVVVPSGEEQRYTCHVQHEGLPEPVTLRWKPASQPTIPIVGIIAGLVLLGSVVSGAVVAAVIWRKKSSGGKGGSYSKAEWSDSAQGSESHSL
ROR2 on YT-1 cells, sequence (Q01974 34-943 limits assumed): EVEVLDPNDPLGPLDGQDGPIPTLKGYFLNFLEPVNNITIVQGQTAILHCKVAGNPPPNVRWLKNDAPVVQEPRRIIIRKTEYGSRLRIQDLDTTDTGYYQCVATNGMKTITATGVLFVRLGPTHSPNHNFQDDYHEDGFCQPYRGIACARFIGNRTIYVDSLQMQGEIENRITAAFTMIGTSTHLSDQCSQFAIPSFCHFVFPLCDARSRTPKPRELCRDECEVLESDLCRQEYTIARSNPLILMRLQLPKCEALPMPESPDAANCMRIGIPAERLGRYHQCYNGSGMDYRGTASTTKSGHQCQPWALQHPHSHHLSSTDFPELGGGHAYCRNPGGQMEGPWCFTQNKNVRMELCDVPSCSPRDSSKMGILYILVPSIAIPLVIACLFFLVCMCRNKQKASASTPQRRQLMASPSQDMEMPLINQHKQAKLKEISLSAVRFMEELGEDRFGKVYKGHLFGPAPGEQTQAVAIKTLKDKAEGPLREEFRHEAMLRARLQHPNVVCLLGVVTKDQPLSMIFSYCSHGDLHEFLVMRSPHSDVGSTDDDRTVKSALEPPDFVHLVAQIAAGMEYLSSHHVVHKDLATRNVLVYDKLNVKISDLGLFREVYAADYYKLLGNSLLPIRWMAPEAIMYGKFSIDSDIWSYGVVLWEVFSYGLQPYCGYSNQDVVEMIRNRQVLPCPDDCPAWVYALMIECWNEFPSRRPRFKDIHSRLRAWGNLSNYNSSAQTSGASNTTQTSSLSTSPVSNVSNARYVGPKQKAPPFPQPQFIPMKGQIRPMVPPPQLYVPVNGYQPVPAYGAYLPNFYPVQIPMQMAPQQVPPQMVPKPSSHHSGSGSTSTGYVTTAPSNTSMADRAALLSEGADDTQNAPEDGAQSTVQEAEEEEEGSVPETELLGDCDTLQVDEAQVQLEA
FLT1 on YT-1 cells, sequence (P17948 27-1338 limits assumed): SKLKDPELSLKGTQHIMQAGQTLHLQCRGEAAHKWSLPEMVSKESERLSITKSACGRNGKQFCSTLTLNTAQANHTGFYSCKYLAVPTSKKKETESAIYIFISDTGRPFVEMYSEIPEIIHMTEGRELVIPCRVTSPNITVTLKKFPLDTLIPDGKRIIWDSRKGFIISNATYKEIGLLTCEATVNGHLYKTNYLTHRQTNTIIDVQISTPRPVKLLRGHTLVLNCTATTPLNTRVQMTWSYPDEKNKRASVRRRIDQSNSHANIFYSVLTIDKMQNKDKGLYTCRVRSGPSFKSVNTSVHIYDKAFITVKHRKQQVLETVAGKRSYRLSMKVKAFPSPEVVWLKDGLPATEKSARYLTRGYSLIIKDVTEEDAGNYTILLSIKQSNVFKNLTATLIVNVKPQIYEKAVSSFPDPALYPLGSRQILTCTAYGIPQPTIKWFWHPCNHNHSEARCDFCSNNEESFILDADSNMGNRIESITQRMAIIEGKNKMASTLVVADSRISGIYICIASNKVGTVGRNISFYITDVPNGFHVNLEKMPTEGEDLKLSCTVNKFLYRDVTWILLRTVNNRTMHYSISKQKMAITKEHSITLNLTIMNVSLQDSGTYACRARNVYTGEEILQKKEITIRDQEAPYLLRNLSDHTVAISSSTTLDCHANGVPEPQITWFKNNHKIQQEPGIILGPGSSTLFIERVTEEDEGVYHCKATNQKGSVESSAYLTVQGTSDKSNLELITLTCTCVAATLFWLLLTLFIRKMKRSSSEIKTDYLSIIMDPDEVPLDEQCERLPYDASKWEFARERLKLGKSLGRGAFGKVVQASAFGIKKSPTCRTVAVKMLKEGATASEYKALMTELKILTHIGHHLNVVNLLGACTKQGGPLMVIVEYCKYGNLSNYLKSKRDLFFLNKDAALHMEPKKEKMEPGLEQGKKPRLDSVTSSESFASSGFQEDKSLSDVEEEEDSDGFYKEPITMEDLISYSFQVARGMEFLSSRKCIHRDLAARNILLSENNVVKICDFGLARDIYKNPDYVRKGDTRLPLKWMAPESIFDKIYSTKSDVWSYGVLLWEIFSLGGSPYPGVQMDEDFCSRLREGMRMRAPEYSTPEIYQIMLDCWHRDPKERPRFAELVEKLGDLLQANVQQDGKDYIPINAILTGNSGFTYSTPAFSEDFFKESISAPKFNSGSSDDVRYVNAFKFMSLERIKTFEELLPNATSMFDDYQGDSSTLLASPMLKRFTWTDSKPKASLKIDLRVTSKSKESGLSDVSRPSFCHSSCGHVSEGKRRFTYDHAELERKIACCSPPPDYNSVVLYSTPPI
LTβR on YT-1 cells, sequence (P36941 31-435 limits assumed): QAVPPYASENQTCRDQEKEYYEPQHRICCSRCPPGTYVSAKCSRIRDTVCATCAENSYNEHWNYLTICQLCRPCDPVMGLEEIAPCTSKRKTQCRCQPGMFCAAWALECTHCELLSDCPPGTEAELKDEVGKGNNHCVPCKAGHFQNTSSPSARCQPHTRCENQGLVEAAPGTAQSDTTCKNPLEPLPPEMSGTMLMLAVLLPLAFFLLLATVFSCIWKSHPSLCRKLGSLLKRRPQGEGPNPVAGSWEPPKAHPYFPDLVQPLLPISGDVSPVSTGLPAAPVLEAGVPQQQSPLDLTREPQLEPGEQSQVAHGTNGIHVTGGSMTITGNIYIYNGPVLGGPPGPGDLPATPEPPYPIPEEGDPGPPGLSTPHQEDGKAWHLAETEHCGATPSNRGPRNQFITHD

Log 10 fold change of sgRNAs in YT-1 GeCKO library cells sorted for non-binding to BTN3A-IgG4 (Log 10 fold change) (HLA-E on YT-1 cells): 3.66
Log 10 fold change of sgRNAs in YT-1 GeCKO library cells sorted for non-binding to BTN3A-IgG4 (Log 10 fold change) (FLT1 on YT-1 cells): 3.7
Log 10 fold change of sgRNAs in YT-1 GeCKO library cells sorted for non-binding to BTN3A-IgG4 (Log 10 fold change) (LTβR on YT-1 cells): 3.69
Log 10 fold change of sgRNAs in YT-1 GeCKO library cells sorted for non-binding to BTN3A-IgG4 (Log 10 fold change) (ROR2 on YT-1 cells): 3.54
Log 10 fold change of sgRNAs in YT-1 GeCKO library cells sorted for non-binding to BTN3A-IgG4 (Log 10 fold change) (CD163 on YT-1 cells): 3.56
Substance: fluorescently coupled BTN3A ectodomain fused to the Fc fragment of human IgG4 (Fc fusion)
